Reference: patent US20230039401A1, “COMPOSITIONS AND METHODS FOR TREATING NRP2-ASSOCIATED DISEASES” (aTyr Pharma, Inc., priority 2018, published 2023)
Entries after “also recorded” stand apart in the source; their conditions may differ.

Experiments:
[1] = target: T1, NRP2:Fc-HRS(2-60) interaction (Homo sapiens, UniProt O60462); test: SPR competition of known NRP2 ligands with the NRP2:Fc-HRS(2-60) interaction; type: binding; details: for Competes with Fc-HRS(2-60) for NRP2 binding: SPR, NRP2 binding to immobilized Fc-HRS(2-60) in presence of ligand; for effect of ligand on binding of NRP2 to Fc-HRS(2-60) (SPR): NRP2 in the presence of the ligand over immobilized Fc-HRS(2-60)
T1 construct: Fc (C); purchased R&D Systems 2215-N2
Experimental: (§1) Protein-Protein Interaction studies. […] SPR experiments were conducted on a Bio-Rad ProteOn XPR36 Protein Interaction Array instrument. Proteins were immobilized on different channels of ProteOn GLC sensor chips through amine coupling. Analyte proteins were flowed over the immobilized proteins. The sensor chip surface was regenerated between each analyte run to remove interacting proteins. Data was double referenced against an interspot (untreated chip surface) and a blank surface (activated and deactivated for amine coupling).
Studies were performed to confirm the binding specificity of Neuropilin 2 (NRP2) to Fc-HRS(2-60) using orthologous methods to those used in the large scale Retrogenix screening (Example 1). In a series of experiments, Fc-HRS(2-60) and related proteins were immobilized on SPR chips, and NRP2 and related proteins were flowed as analytes. Upon confirmation of the NRP2:Fc-HRS(2-60) interaction, the dependence on divalent cations was tested as NRP2 is known to have Ca^2+ binding sites. The effects of previously characterized NRP2 ligands on the NRP2: Fc-HRS(2-60) interaction was also tested to determine if these known ligands have competitive effects on the Fc-HRS(2-60) interaction.
(§2) A subset of the known ligands of NRP2 appears to compete binding of Fc-HRS(2-60) to NRP2.

[2] = target: T2, cell-expressed NRP2 (NRP2a-GFP fusion protein on HEK293T cells) (Homo sapiens, UniProt O60462); test: Immunofluorescence binding of Fc-HRS (2-60) to HEK293T cells overexpressing NRP2v2-GFP; details: 175 nM Fc-HRS (2-60)/anti-Fc-PE; pre-incubation with the test agent
T2 construct: host or cells: HEK293T
Experimental: Reagents: • PE anti-human IgG Fc Antibody, clone HP6017, Biolegend cat 409304 • Mouse Anti-HRS monoclonal antibody (1-96) Clone 1C8, Abnova cat H00003035-M01 • Mouse IgG2a, Isotype control antibody (MOPC-173), Biolegend cat 400223 • Recombinant Human VEGF-C Protein, R&D Systems, cat 2179-VC-025/CF • Formaldehyde, 16%, methanol free, Ultra Pure, Polysciences, cat 18814-10 • Hoechst 33342, Trihydrochloride, Trihydrate, ThermoFisher Scientific, cat H1399 • Fc-HRS (2-60) was prepared as described in PCT application PCT/US2014/029699 • Gibco DMEM, High Glucose, ThermoFisher Scientific, cat 11965092 • PolyJet™ In Vitro DNA Transfection Reagent, SignaGen, cat SL100688 • Neuropilin 2 (NRP2) (NM_003872) Human ORF Clone, Origene, cat RG220706 • Collagen Coating Solution, Cell Applications Cat 125-100 • 1×PBS containing 1% BSA, 0.9 mM CaCl2 and 20 mM glucose • Binding buffer containing 1% normal mouse IgG (sigma cat 18765) and 2.5% (Human Fc Receptor Binding Inhibitor, ebioscience 14-9161-73).
Cell culture and transfection. […]
Immunofluorescence assays on cultured cells. Binding and quantitation of Fc-HRS (2-60) to cell-expressed NRP2 was achieved using immunofluorescence microscopy. […] The Hoechst stain was replaced with 1×PBS and subsequently read on an IN Cell Analyzer 2200. 20× images were acquired and analyzed using In Cell Analyzer 1000 Workstation software. […]

[3] = target: T3, NRP2 (Homo sapiens, UniProt O60462); test: SPR binding of known ligands to NRP2; details: for Binding to NRP2 observed by SPR: known NRP2 ligands; for binding of ligand to NRP2: applicant's system
T3 construct: Fc (C); purchased R&D Systems 2215-N2
Experimental: as §1, §2

B1: PlGf-2/Heparin (protein)
chain: LPAVPPQQWALSAGNGSSEVEVVPFQEVWGRSYCRALERLVDVVSEYPSEVEHMFSPSCVSLLRCTGCCGDENLHCVPVETANVTMQLLKIRSGDRPSYVELTFSQHVRCECRPLREKMKPERRRPKGRGKRRREKQRPTDCHLCGDAVPRR
Competes with Fc-HRS(2-60) for NRP2 binding [1]: Yes

B2: VEGF-C: commercial NRP2 ligand protein (R&D Systems) (protein)
chain: TEETIKFAAAHYNTEILKSIDNEWRKTQCMPREVCIDVGKEFGVATNTFFKPPCVSVYRCGGCCNSEGLQCMNTSTSYLSKTLFEITVPLSQGPKPVTISFANHTSCRCMSKLDVYRQVHSIIRR
inhibition of Fc-HRS (2-60) binding to cells expressing NRP2a-GFP [2]: binding inhibition; also recorded: direct competition | effect of ligand on binding of NRP2 to Fc-HRS(2-60) (SPR) [1]: reduced or ablated | Competes with Fc-HRS(2-60) for NRP2 binding [1]: Yes | Binding to NRP2 observed by SPR [3]: Yes

B3: VEGF-A121: commercial protein (Peprotech #100-20A) (protein)
chain: APMAEGGGQNHHEVVKFMDVYQRSYCHPIETLVDIFQEYPDEIEYIFKPSCVPLMRCGGCCNDEGLECVPTEESNITMQIMRIKPHQGQHIGEMSFLQHNKCECRPKKDRARQEKCDKPRR
effect of ligand on binding of NRP2 to Fc-HRS(2-60) (SPR) [1]: unaffected | Competes with Fc-HRS(2-60) for NRP2 binding [1]: No | binding of ligand to NRP2 [3]: does not bind | Binding to NRP2 observed by SPR [3]: No

B4: VEGF-A145: commercial protein (R&D Systems #7626-VE-CF) (protein)
chain: APMAEGGGQNHHEVVKFMDVYQRSYCHPIETLVDIFQEYPDEIEYIFKPSCVPLMRCGGCCNDEGLECVPTEESNITMQIMRIKPHQGQHIGEMSFLQHNKCECRPKKDRARQEKKSVRGKGKGQKRKRKKSRYKSWSVCDKPRR
effect of ligand on binding of NRP2 to Fc-HRS(2-60) (SPR) [1]: unaffected | Competes with Fc-HRS(2-60) for NRP2 binding [1]: No | binding of ligand to NRP2 [3]: does not bind NRP2 in our system | Binding to NRP2 observed by SPR [3]: No

B5: SEMA3C: commercial protein (R&D Systems #5570-S3) (protein)
chain: GSSQPQARVYLTFDELRETKTSEYFSLSHHPLDYRILLMDEDQDRIYVGSKDHILSLNINNISQEALSVFWPASTIKVEECKMAGKDPTHGCGNFVRVIQTFNRTHLYVCGSGAFSPVCTYLNRGRRSEDQVFMIDSKCESGKGRCSFNPNVNTVSVMINEELFSGMYIDFMGTDAAIFRSLTKRNAVRTDQHNSKWLSEPMFVDAHVIPDGTDPNDAKVYFFFKEKLTDNNRSTKQIHSMIARICPNDTGGLRSLVNKWTTFLKARLVCSVTDEDGPETHFDELEDVFLLETDNPRTTLVYGIFTTSSSVFKGSAVCVYHLSDIQTVFNGPFAHKEGPNHQLISYQGRIPYPRPGTCPGGAFTPNMRTTKEFPDDVVTFIRNHPLMYNSIYPIHKRPLIVRIGTDYKYTKIAVDRVNAADGRYHVLFLGTDRGTVQKVVVLPTNNSVSGELILEELEVFKNHAPITTMKISSKKQQLYVSSNEGVSQVSLHRCHIYGTACADCCLARDPYCAWDGHSCSRFYPTGKRRSRRQDVRHGNPLTQCRGFNLKAYRNAAEIVQYGVKNNTTFLECAPKSPQASIKWLLQKDKDRRKEVKLNERIIATSQGLLIRSVQGSDQGLYHCIATENSFKQTIAKINFKVLDSEMVAVVTDKWSPWTWASSVRALPFHPKDIMGAFSHSEMQMINQYCKDTRQQHQQGDESQKMRGDYGKLKALINS
modifications: left off: a dimerising Fc or GST
effect of ligand on binding of NRP2 to Fc-HRS(2-60) (SPR) [1]: do not affect | Competes with Fc-HRS(2-60) for NRP2 binding [1]: No | binding of ligand to NRP2 [3]: do bind | Binding to NRP2 observed by SPR [3]: Yes

B6: mouse SEMA3F: commercial protein (R&D Systems #3237-S3) (protein)
chain: ATPIQDQLPATPRVRLSFKELKATGTAHFFNFLLNTTDYRILLKDEDHDRMYVGSKDYVLSLDLHDINREPLIIHWAASPQRIEECILSGKDGNGECGNFVRLIQPWNRTHLYVCGTGAYNPMCTYVNRGRRAQALPWTQMQVVRGRGSRATDGADRPTPTAPRQDYIFYLEPEKLESGKGKCPYDPKLDTASALINEELYAGVYIDFMGTDAAIFRTLGKQTAMRTDQYNSRWLNDPSFIHAELIPDSAERNDDKLYFFFRERSAEAPQNPAVYARIGRICLNDDGGHCCLVNKWSTFLKARLVCSVPGEDGIETHFDELQDVFVQQTQDVRNPVIYAVFTSSGSVFRGSAVCVYSMADIRMVFNGPFAHKEGPNYQWMPFSGKMPYPRPGTCPGGTFTPSMKSTKDYPDEVINFMRTHPLMYQAVYPLQRRPLVVRTGAPYRLTTVAVDQVDAADGRYEVLFLGTDRGTVQKVIVLPKDDQEVEELMLEEVEVFKEPAPVKTMTISSKRQQLYVASAVGVTHLSLHRCQAYGAACADCCLARDPYCAWDGQACSRYTASSKRRSRRQDVRHGNPIRQCRGFNSNANKNAVESVQYGVAGSAAFLECQPRSPQATVKWLFQRDPSDRRREIRAEDRFLRTEQGLLLRALQLGDRGLYSCTATENNFKHIVTRVQLHVLGRDAVHAALFPPLAVSVPPPPGTGPPTPPYQELAQLLAQPEVGLIHQYCQGYWRHVPPRPREAPGALRPPELQDQKKPRNRRHHPPDT
modifications: left off: a dimerising Fc or GST
effect of ligand on binding of NRP2 to Fc-HRS(2-60) (SPR) [1]: do not affect | Competes with Fc-HRS(2-60) for NRP2 binding [1]: No | binding of ligand to NRP2 [3]: do bind | Binding to NRP2 observed by SPR [3]: Yes
